Measurements published in PMC4072592, “The EJC Binding and Dissociating Activity of PYM Is Regulated in Drosophila” (PLoS Genetics, 2014).

Target: T1, FL-PYM-GFP (S2 cells) (Drosophila, UniProt P82804 1-207)
T1 construct: Drosophila PYM (wibg, CG30176), full length coding region amplified from ovarian cDNA; also called GFP-tagged FL-PYM; source: S2 cells, transiently transfected, in cytoplasmic extract; not shown: eGFP, C-terminal, kept
T1 sequence (looked up): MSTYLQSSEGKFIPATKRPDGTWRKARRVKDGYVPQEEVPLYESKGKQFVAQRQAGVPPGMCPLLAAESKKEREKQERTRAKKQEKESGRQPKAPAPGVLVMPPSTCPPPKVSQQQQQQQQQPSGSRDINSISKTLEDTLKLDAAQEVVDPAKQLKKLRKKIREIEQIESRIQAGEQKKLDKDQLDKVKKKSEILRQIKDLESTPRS
Experiment: co-IP + cross-linking; as the native GFP-Trap IP from S2 cell extracts, but extracts cross-linked with 1 mM DSP for 1 h at 4°C before the IP; blots quantified by densitometry
Conditions: partners not purified

fold increase of binding upon DSP treatment against native: 1.7 fold
B1: Y14-Mago heterodimer, endogenous in S2 cells (complex)
chain 1: not shown
chain 2: not shown
notes: Y14 (Tsunagi), Drosophila, endogenous; Mago nashi (Mago), Drosophila, endogenous; also called Mago and Y14; Mago-Y14; source: endogenous, cytoplasmic extract of Drosophila S2 cells
